# Experimental data from the supplement of paper PMC10899765.
# Experiments:
# Conditions in all cases: 20 nM; 72 h
# [1] = system: MCF10A; assay: one-nucleolus phenotype percent effect (relative to siNT 0% and siNOL11 100%); higher = more cells with one nucleolus (ribosome biogenesis inhibition)
# Protocol: (§1)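 After 72 h, cells were fixed and stained with Hoechst and anti-fibrillarin, and nucleoli per nucleus were counted with CellProfiler. Values are plate-adjusted percent effect for the one-nucleolus and 5+ nucleoli phenotypes, normalised to siNT (0%) and to the positive controls siNOL11 or siKIF11 (100%), as the mean of biological triplicates. Percent viability is the nuclei count relative to siNT.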
# [2] = system: MCF10A; assay: 5+ nucleoli phenotype percent effect (relative to siNT 0% and siKIF11 100%); higher = more cells with five or more nucleoli
# Protocol: as §1
# [3] = system: MCF10A; assay: percent viability (nuclei count relative to siNT); higher = more viable cells
# Protocol: as §1
Sequence,one-nucleolus phenotype percent effect [1] [%],5+ nucleoli phenotype percent effect [2] [%],percent viability [3] [%]
CACUGCAGGACUCAGCAG [hsa-miR-4418],-4.26,-22.7,55.1
GAAGGCGCUUCCCUUUGGAGU [hsa-miR-524-3p],35.1,-9.32,70.4
GCCCCUGGGCCUAUCCUAGAA [hsa-miR-331-3p],6.3,8.19,61.2
UGAGGCAGUAGAUUGAAU [hsa-miR-1827],60.2,-33.8,16.7
UGGGAGGGGAGAGGCAGCAAGCA [hsa-miR-4728-5p],46,-29.9,7
UAGUGGAUGAUGCACUCUGUGC [hsa-miR-3681-5p],15.8,-13.2,50
AUACCUCAUCUAGAAUGCUGUA [hsa-miR-4777-3p],0.874,-19.6,51.3
UCCCUUCUUCCUGGGCCCUCA [hsa-miR-5088-3p],-36.6,70.3,59.2
UCUCCCUUCCUGCCCUGGCUAG [hsa-miR-4685-3p],-25.3,29.5,98.4
UGGCGGCGGUAGUUAUGGGCUU [hsa-miR-4467],39.9,-36,30.8
CUCCUCUGUUUUCUUUCCUAG [hsa-miR-6780a-3p],25.3,-34.9,34.4
UCACAAAUCUAUAAUAUGCAGG [hsa-miR-4719],-19.7,40.1,149
AGCAGACUUGACCUACAAUUA [hsa-miR-4771],-9.9,3.81,53.6
UGGUCGACCAGUUGGAAAGUAAU [hsa-miR-412-5p],13.6,-1.85,46.8
UUAGUGAAGGCUAUUUUAAUU [hsa-miR-3606-5p],6.89,-9.93,109
AGGGGCUGGCUUUCCUCUGGUC [hsa-miR-185-3p],49.9,-3.46,22.6
CGCCUGCCCAGCCCUCCUGCU [hsa-miR-4763-5p],11.6,-11.3,38.1
CCUCCUGCCCUCCUUGCUGU [hsa-miR-1976],7.39,21.5,79.5
CUGGACUGAGCCAUGCUACUGG [hsa-miR-1269b],2.22,18.3,60.9
ACCCUUUUUCUCUUUCCCAG [hsa-miR-6832-3p],-12.4,38.2,76.6
AUAUGUAUAUGUGACUGCUACU [hsa-miR-3924],-20,-20.9,32
UUCCAUGCCUCCUAGAAGUUCC [hsa-miR-5581-3p],-19.3,13.6,57.3
UUCCCUAUCUCACUCUCCUCAG [hsa-miR-6883-3p],-14.4,20.1,58.5
CAUCUCUAAGGAACUCCCCCAA [hsa-miR-3675-3p],10.4,8.48,62
UGCCCUUAAAGGUGAACCCAGU [hsa-miR-938],6.19,6.12,57.4
